Assay results as given in publication PMC3087488 (Journal of Oncology, 2011).
Where “and” joins values, the source holds several entries; their conditions need not be identical. Identical values can stand only once. Each block holds one compound with its values, some of them ahead of it.

How the values were obtained:
[1] = plasma gemcitabine concentration in patients; format: in vivo, human; settings: completion of infusion, gemcitabine 1250 mg/m^2
Protocol: Plasma motesanib and gemcitabine concentrations were analyzed using a validated liquid chromatography/tandem mass spectrometry (LC-MS/MS) method, respectively. […] All pharmacokinetic parameter estimates were calculated using standard noncompartmental methods and WinNonlin Professional software on […] (Version 5.1.1, Pharsight Corporation, Mountain View, Calif, USA).

[2] = bevacizumab 15-mg/kg cohort plus carboplatin/paclitaxel; locally advanced or metastatic NSCLC; grade 3/4, n = 5; cited from earlier work
[3] = adverse events in patients (CTCAE version 3.0); format: in vivo, human
Protocol: Adverse events were recorded throughout the study and graded (including DLTs) according to the Common Terminology Criteria for Adverse Events, version 3.0. Samples for assessment of hematology, blood chemistry, urinalysis, and thyroid function were collected on day 1 of each cycle.

[4] = serum panitumumab concentration in patients; format: in vivo, human; settings: panitumumab 9 mg/kg
[5] = 8 patients who received panitumumab and gemcitabine/cisplatin only
[6] = all 41 patients (7%), only in patients who also received motesanib

Plasma gemcitabine concentration (cycle 1), mean (SD) ([1]; No motesanib (0 mg QD), n 8): 11000 ng/mL and 11000 (4220) ng/mL
Plasma gemcitabine concentration (cycle 1), mean (SD) ([1]; with motesanib 50 mg QD, n 8): 8450 (7310) ng/mL
Plasma gemcitabine concentration (cycle 1), mean ([1]; with motesanib 75 mg BID, n 2): 8290 (NR) ng/mL
Plasma gemcitabine concentration (cycle 1), mean (SD) ([1]; with motesanib 75 mg QD, n 6): 14400 (6020) ng/mL
Plasma gemcitabine concentration (cycle 1), mean (SD) ([1]; with motesanib 100 mg QD, n 6): 6160 (3690) ng/mL
Plasma gemcitabine concentration (cycle 1), mean (SD) ([1]; with motesanib 125 mg QD, n 11): 16100 ng/mL and 16100 (6800) ng/mL
Compound: Nc1ccn([C@@H]2O[C@H](CO)[C@@H](O)C2(F)F)c(=O)n1 [gemcitabine]

Compound: bevacizumab
patient incidence rate of thrombotic events [2]: 17.6%

Compound: panitumumab
panitumumab-related dermatitis acneiform [3, 5]: 5 patients
panitumumab-related erythema [3, 5]: 5 patients
panitumumab-related nausea [3, 5]: 6 patients
panitumumab-related pruritus [3, 5]: 5 patients
panitumumab-related rash [3, 5]: 6 patients
panitumumab-related anemia ([3]; all 41 patients): 7 patients
panitumumab-related anorexia ([3]; all 41 patients): 11 patients
panitumumab-related diarrhea ([3]; all 41 patients): 16 patients
panitumumab-related dry skin ([3]; all 41 patients): 7 patients
panitumumab-related fatigue ([3]; all 41 patients): 19 patients
panitumumab-related hypomagnesemia ([3]; all 41 patients): 17 patients
panitumumab-related nausea ([3]; all 41 patients): 21 patients
panitumumab-related pruritus ([3]; all 41 patients): 18 patients
panitumumab-related rash ([3]; all 41 patients): 22 patients
panitumumab-related vomiting ([3]; all 41 patients): 12 patients
serious panitumumab-related diarrhea ([3]; all 41 patients (5%)): 2 patients
serious panitumumab-related dehydration ([3]; all 41 patients (7%)): 3 patients
serious panitumumab-related deep vein thrombosis [3, 6]: 3 patients
serious panitumumab-related pulmonary embolism [3, 6]: 3 patients
patients with serious panitumumab-related events ([3]; all 41 patients, eleven patients): 27%
patients who discontinued panitumumab because of adverse events ([3]; all cohorts): 11 patients
Serum panitumumab, Cycle 4 postdose mean concentration (SD) ([4]; No motesanib (0 mg QD), n 3): 275 (118) μg/mL
Serum panitumumab, Cycle 4 predose mean concentration (SD) ([4]; No motesanib (0 mg QD), n 4): 56.5 (39.6) μg/mL
Serum panitumumab, Cycle 2 postdose mean concentration (SD) ([4]; No motesanib (0 mg QD), n 6): 186 (62.9) μg/mL
Serum panitumumab, Cycle 2 predose mean concentration (SD) ([4]; No motesanib (0 mg QD), n 6): 11.2 (15.5) μg/mL
Serum panitumumab, Cycle 1 postdose mean concentration (SD) ([4]; No motesanib (0 mg QD), n 8): 206 (76.4) μg/mL
Serum panitumumab, Cycle 4 postdose mean concentration (SD) ([4]; with motesanib 50 mg QD, n 3): 232 (52.8) μg/mL
Serum panitumumab, Cycle 4 predose mean concentration (SD) ([4]; with motesanib 50 mg QD, n 3): 10.5 (6.4) μg/mL
Serum panitumumab, Cycle 2 postdose mean concentration (SD) ([4]; with motesanib 50 mg QD, n 5): 193 (37.5) μg/mL
Serum panitumumab, Cycle 1 postdose mean concentration (SD) ([4]; with motesanib 50 mg QD, n 7): 174 (24.9) μg/mL
Serum panitumumab, Cycle 2 predose mean concentration (SD) ([4]; with motesanib 50 mg QD, n 7): 9.0 (5.8) μg/mL
Serum panitumumab, Cycle 2 postdose mean concentration ([4]; with motesanib 75 mg BID, n 1): 217 (NR) μg/mL
Serum panitumumab, Cycle 2 predose mean concentration ([4]; with motesanib 75 mg BID, n 1): 11.2 (NR) μg/mL
Serum panitumumab, Cycle 1 postdose mean concentration ([4]; with motesanib 75 mg BID, n 2): 189 (NR) μg/mL
Serum panitumumab, Cycle 4 predose mean concentration (SD) ([4]; with motesanib 75 mg QD, n 5): 32.5 (21.3) μg/mL
Serum panitumumab, Cycle 1 postdose mean concentration (SD) ([4]; with motesanib 75 mg QD, n 6): 158 (24.2) μg/mL
Serum panitumumab, Cycle 2 postdose mean concentration (SD) ([4]; with motesanib 75 mg QD, n 6): 194 (21.5) μg/mL
Serum panitumumab, Cycle 2 predose mean concentration (SD) ([4]; with motesanib 75 mg QD, n 6): 13.1 (13.5) μg/mL
Serum panitumumab, Cycle 4 postdose mean concentration (SD) ([4]; with motesanib 75 mg QD, n 6): 218 (26.1) μg/mL
Serum panitumumab, Cycle 4 postdose mean concentration ([4]; with motesanib 100 mg QD, n 2): 290 (NR) μg/mL
Serum panitumumab, Cycle 2 postdose mean concentration (SD) ([4]; with motesanib 100 mg QD, n 4): 224 (51.8) μg/mL
Serum panitumumab, Cycle 4 predose mean concentration (SD) ([4]; with motesanib 100 mg QD, n 4): 41.6 (16.5) μg/mL
Serum panitumumab, Cycle 1 postdose mean concentration (SD) ([4]; with motesanib 100 mg QD, n 5): 194 (27.1) μg/mL
Serum panitumumab, Cycle 2 predose mean concentration (SD) ([4]; with motesanib 100 mg QD, n 5): 18.9 (10.7) μg/mL
Serum panitumumab, Cycle 4 postdose mean concentration (SD) ([4]; with motesanib 125 mg QD, n 3): 170 (55.0) μg/mL
Serum panitumumab, Cycle 4 predose mean concentration (SD) ([4]; with motesanib 125 mg QD, n 3): 21.7 (22.0) μg/mL
Serum panitumumab, Cycle 2 postdose mean concentration (SD) ([4]; with motesanib 125 mg QD, n 6): 213 (39.0) μg/mL
Serum panitumumab, Cycle 2 predose mean concentration (SD) ([4]; with motesanib 125 mg QD, n 6): 13.4 (14.2) μg/mL
Serum panitumumab, Cycle 1 postdose mean concentration (SD) ([4]; with motesanib 125 mg QD, n 11): 203 (82.9) μg/mL
